PMC7870846, “Incorporation of sensing modalities into de novo designed fluorescence-activating proteins” (Nature Communications, 2021)
Changes are numbered by the printed parent chain.

Experiments:
[1] = Ca2+-responsive mFAP Ca2+ titrations; format: binding
Description: In measuring Ca^2+ affinity of mFAPs on a Synergy Neo2 hybrid multi-mode reader (Fig. 4d, e, f and Supplementary Figs. 10c, f, i, 11c, f, i, 13c, f, i, 16b), large-scale purified proteins[49] were aliquoted in technical triplicate to a final concentration of 500 nM with 5.00 μM DFHBI in eleven serial dilutions ( 10 dilution factor) of CaCl2 (Sigma Aldrich) starting from either 900 mM or 90.0 mM CaCl2 (diluted using high-salt Tev cleavage buffer) including a twelfth condition without CaCl2. Final volumes were 200 μL in flat bottom, black polystyrene, non-binding surface 96-well microplates (Corning 3650). Fluorescence endpoints were measured using excitation wavelength λex = 484 nm and emission wavelength λem = 508 nm. Background fluorescence endpoints of wells with identical chromophore and CaCl2 concentrations lacking protein (substituted for equivalent volumes of high-salt Tev cleavage buffer) were measured in technical triplicate, averaged per condition, and subtracted from protein measurement averages of the same conditions.
For Ca^2+ titrations of EF4n_mFAP2a and EF4n_mFAP2b (Supplementary Fig. 13c), a small amount of Chelex 100 sodium form (Sigma Aldrich) was added to purified protein (produced by large-scale protein purification and SEC purification[49]) and nutated at 4 °C overnight. EF4n_mFAP2a was aliquoted in technical triplicate to a final concentration of 8.00 μM with 80.0 μM DFHBI and EF4n_mFAP2b was aliquoted in technical triplicate to a final concentration of 6.25 μM with 43.4 μM DFHBI, in eleven serial dilutions ( 10 dilution factor) of CaCl2 starting from 9.00 mM or 4.00 mM CaCl2 (diluted using high-salt Tev cleavage buffer pre-treated with Chelex 100) including a twelfth condition without CaCl2. Final volumes were 25.0 μL in flat bottom, black polystyrene, non-binding surface 96-well half-area microplates (Corning 3686) or 200 μL in flat bottom, black polystyrene, non-binding surface 96-well microplates (Corning 3650). Fluorescence endpoints were measured for EF4n_mFAP2a using excitation wavelength λex = 478 nm and emission wavelength λem = 520 nm, and for EF4n_mFAP2b using excitation wavelength λex = 484 nm and emission wavelength λem = 508 nm. Background fluorescence endpoints of wells with identical chromophore and CaCl2 concentrations lacking protein (substituted for equivalent volumes of high-salt Tev cleavage buffer) were measured in technical triplicate, averaged per condition, and subtracted from protein measurement averages of the same conditions. For non-linear least squares fitting to obtain Kd values, means were fit to a single-binding site isotherm function where Ca^2+-binding sites were modeled independently with a Hill coefficient of 1.

[2] = tested on: human induced pluripotent stem cell (hiPSC)-derived cardiomyocytes; assay: Contraction and SR Ca2+ transient imaging of cardiomyocytes; format: cell-based; conditions: SR-targeted; image acquisition ~16.7 Hz
Description: hiPSC culture and cardiomyocyte differentiation: Undifferentiated IMR90 human induced pluripotent stem cells (hiPSCs) (WiCell) were maintained in mTeSR-1 (StemCell Technologies) on tissue culture plastic coated with Matrigel diluted 1:60 (Corning) at 37 °C and 5% CO2. Cardiomyocytes were differentiated using a monolayer-based directed differentiation protocol. hiPSCs were dissociated into a single cell suspension using Versene (Life Technologies) and plated at a high density (1.5–2.5·10^5 cells cm^−2) in mTeSR containing 10 µM Y-27632 ROCK inhibitor onto Matrigel-coated plates. Twenty-four hours after plating, media was replaced with fresh mTeSR. […]
Contraction and SR Ca^2+ transient imaging: Leica DMI8 microscope controlled by MetaMorph Imaging software was used to image contraction and Ca^2+ transients of the SR in CMs. […] For mapping contraction, three different ROI traces were hand-drawn, and displacement of cells were measured in the fluorescence channel. […] In order to quantify tissue-level Ca^2+ fluxes during cardiac contraction cycling, fluorescence fold-change over the whole field of view was calculated for each frame then temporally matched with contraction data. Fluorescence fold-change in each frame was calculated by Eq. (11) where F is the fluorescence per frame, and F0 is the fluorescence of the frame with the minimum fluorescence (Fig. 5f and Supplementary Fig. 19b). […]

[3] = Fluorescence intensity of circularly permuted mFAP2a variants; format: biochemical; conditions: equimolar concentration
Description: To measure the fluorescence intensities of circularly permuted mFAP2a variants (Supplementary Fig. 22b, d), fluorescence endpoints were measured on a Synergy Neo2 hybrid multi-mode reader (BioTek) in flat bottom, black polystyrene, non-binding surface 96-well microplates (Corning 3650) or half-area microplates (Corning 3686). Fluorescence endpoints were measured in technical triplicate by exciting at λex = 488 nm and measuring fluorescence emission at λem = 510 nm (Supplementary Fig. 22b), or exciting at λex = 468 nm and measuring fluorescence emission at λem = 530 nm (Supplementary Fig. 22d). […]

[4] = Circular dichroism; format: physicochemical; conditions: absence of DFHBI
Description: Circular dichroism (CD) measurements were recorded at 25 °C in a 1 mm cuvette on an AVIV model 420 CD spectrometer (Biomedical, Inc.). mFAP2 and mFAP2.1 were purified by large-scale protein purification and SEC purification[49] in phosphate-buffered saline (PBS) (25.0 mM phosphate, 150 mM NaCl, pH 7.40), and far-ultraviolet CD wavelength scans recorded from 195 nm to 260 nm. mFAP2 was measured at 0.441 mg mL^−1 and mFAP2.1 at 0.500 mg mL^−1 in Na2HPO4-citrate buffer with pH adjusted to 7.75, 3.96, or 2.93 using NaOH and HCl. The reported data was background-subtracted using buffer only contols (Supplementary Fig. 1b, c).

[5] = pH-sensitivity of β-barrel variants (fluorescence ratio fold-change pH 3.66-7.36); format: biochemical
Description: In measuring pH-sensitivity of β-barrel variants (Supplementary Fig. 1f) in technical triplicate, 140 μL of Na2HPO4-citrate (pH 7.36 or 3.66) supplemented with 150 mM NaCl and 1.43 μM DFHBI was combined with 10.0 μL of small-scale purified protein[49] for a final concentration of 1.33 μM DFHBI. Fluorescence endpoints were measured by exciting at λex = 387 nm or λex = 483 nm and measuring fluorescence emission at λem = 501 nm or λem = 504 nm, respectively. Without background subtraction, the fluorescence ratio fold-change from pH 3.66–7.36 was calculated as:2 FluorescenceRatioFold-ChangepH3.66-7.36=FpH3.66λex=387nm,λem=501nm/FpH3.66λex=483nm,λem=504nm/FpH7.36λex=387nm,λem=501nm/FpH7.36λex=483nm,λem=504nm, where FpHλex,λem is the mean of three technical replicates of endpoint fluorescence measurements at the subscripted pH value and superscripted fluorescence excitation (λex) and fluorescence emission (λem) wavelengths.

B1: EF1n_mFAP2b: negatively allosteric Ca2+-responsive mFAP, one EF-hand motif (protein)
chain: SRAAQLLPGTWQVTMTNEDGQTSQGQWHFQPRSPYTMDIVAQGTISDGRPIVGYGKATVKTPDTLDIDITYPSLGNIKAQGQITMDSPTQFKWDAHVDKDGDGYISAAEAAAQTKILTGTLQRQE
Ca2+-responsiveness / allostery between DFHBI and Ca2+ binding ([1]; Ca2+ titration with excess DFHBI): negative allostery | Kd ([1]; excess DFHBI compared to protein, Hill coefficient of 1): 260 µM | response time to Ca2+ fluxes [2]: less than 60 ms

B2: cp35-34_mFAP2a_12: brightest cpmFAP tested, de novo designed α-helical linker (protein)
chain: QEMDIVAQGTISDGRPIVGYGKATVKTPDTLDIDITYPSLGNIKAQGQITMDSPTQFKWDATTKGENDFHGRLTGTLQRTEEAKEATEEARRRGITTQAAQLLPGTWQATFTNEDGQTSQGQWHFQPRDG
fluorescence intensity relative to mFAP2a [3]: ~ 93%

B3: mFAP2.1: mFAP2 mutational variant (protein)
chain: SRAAQLLPGTWQVTMTNEDGQTSQGQMHFQPRSPYTMDVVAQGTISDGRTIVGYGKVTVKTPDTLDVDITYPSLGNIKAQGQITMDSPTQFKFDATTKGAGNFTGRLTGTLQRQE
stability by circular dichroism compared to mFAP2 [4]: improved stability at pH 2.93

B4: mFAP2.2: most pH-responsive mutant of SDM library (protein)
chain: B3 chain with T50P
fluorescence ratio fold-change from pH 3.66–7.36, higher than mFAP2.1 [5]: ~ 1.3 fold
